The results in this text go back to paper PMC5773583, “Redundancy of protein disulfide isomerases in the catalysis of the inactivating disulfide switch in A Disintegrin and Metalloprotease 17” (Scientific Reports, 2018).

One may read the stoichiometry N as the number of molecules, sites or subunits per partner or assembly. Broadly, the Kd is the free concentration of one partner at which half of the binding sites on the other are occupied at equilibrium, for simple one-to-one binding. Read a high Kd as weaker binding.

First the molecules themselves.
T1: protein disulfide isomerase PDIA3 (human, UniProt P30101 25-505)
T1 construct: mature human PDIA3 (MW 56.6 kDa), cloned into pET28; Monomeric by SEC-MALS; also called Erp57
T1 sequence (looked up): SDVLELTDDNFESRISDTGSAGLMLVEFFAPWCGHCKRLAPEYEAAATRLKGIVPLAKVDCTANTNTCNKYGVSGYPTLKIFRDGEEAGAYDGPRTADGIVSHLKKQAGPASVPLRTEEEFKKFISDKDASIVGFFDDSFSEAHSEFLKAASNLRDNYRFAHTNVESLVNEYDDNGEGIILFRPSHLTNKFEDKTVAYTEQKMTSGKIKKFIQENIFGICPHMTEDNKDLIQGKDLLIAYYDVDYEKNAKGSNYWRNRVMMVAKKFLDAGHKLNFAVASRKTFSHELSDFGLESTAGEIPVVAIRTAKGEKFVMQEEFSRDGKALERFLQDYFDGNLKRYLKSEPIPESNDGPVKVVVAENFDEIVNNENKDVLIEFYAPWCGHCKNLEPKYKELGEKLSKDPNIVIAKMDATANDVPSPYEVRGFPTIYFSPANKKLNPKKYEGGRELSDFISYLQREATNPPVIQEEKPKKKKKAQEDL

T2: PDIA6 C58S TRAP mutant (human, UniProt Q15084 20-440, C58S)
T2 construct: mature human PDIA6 with C58S (second cysteine of the CGHC motif of the a domain), in pET28
T2 sequence (looked up): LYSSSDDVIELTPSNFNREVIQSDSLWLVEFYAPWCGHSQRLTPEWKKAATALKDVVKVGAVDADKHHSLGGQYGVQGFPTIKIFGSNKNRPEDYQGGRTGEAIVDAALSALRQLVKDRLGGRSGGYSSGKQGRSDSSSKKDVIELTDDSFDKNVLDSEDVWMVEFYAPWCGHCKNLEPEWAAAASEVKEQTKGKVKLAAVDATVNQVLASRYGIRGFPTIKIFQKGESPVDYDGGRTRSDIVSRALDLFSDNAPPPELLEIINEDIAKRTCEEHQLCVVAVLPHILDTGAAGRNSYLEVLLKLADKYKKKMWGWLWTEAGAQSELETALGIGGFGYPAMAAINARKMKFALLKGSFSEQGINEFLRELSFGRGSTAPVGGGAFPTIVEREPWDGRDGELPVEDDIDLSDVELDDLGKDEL

T3: PDIA6 C193S TRAP mutant (human, UniProt Q15084 20-440, C193S)
T3 construct: mature human PDIA6 with C193S (second cysteine of the CGHC motif of the a' domain), in pET28
T3 sequence (looked up): T2 sequence (looked up) with S39C, C174S

T4: PDIA6 double TRAP mutant (2 TRAP) C58S C193S (human, UniProt Q15084 20-440, C58S | C193S)
T4 construct: mature human PDIA6 with C58S and C193S, in pET28; also called PDIA6 C58S C193S; PDIA6_2 TRAP
T4 sequence (looked up): T2 sequence (looked up) with C174S

T5: PDIA6 C55S C58S mutant (human, UniProt Q15084 20-440, C55S | C58S)
T5 construct: mature human PDIA6 with both cysteines of the a domain exchanged (C55S, C58S), in pET28
T5 sequence (looked up): T2 sequence (looked up) with C36S

T6: PDIA6 inverse TRAP mutant C55S C190S (human, UniProt Q15084 20-440, C55S | C190S)
T6 construct: mature human PDIA6 with the N-terminal cysteines of both CGHC motifs exchanged (C55S, C190S), in pET28; also called PDIA6 C55S C190S
T6 sequence (looked up): T2 sequence (looked up) with C36S, S39C, C171S

B1: protein disulfide isomerase PDIA6 (enzyme, human, UniProt Q15084 20-440, looked up)
chain: T2 sequence (looked up) with S39C
notes: mature human PDIA6 (MW 48.8 kDa), cloned into pET28; Dimer in solution by SEC-MALS; also called Erp5; wild-type PDIA6
B2: open membrane-proximal domain (opMPD) of A Disintegrin and Metalloprotease 17 (ADAM17) (domain or fragment, UniProt P78536 581-642, looked up)
chain: FCEREQQLESCACNETDNSCKVCCRDLSGRCVPYVDAEQKNLFLRKGKPCTVGFCDMNGKCE
modifications: disulfide 20-50, 55-61; also: labelled on amines with RED-NHS dye
notes: membrane-proximal domain of ADAM17, open isomer, recombinant, 9.9 kDa; also called open conformation of the MPD
B3: closed membrane-proximal domain (clMPD) of A Disintegrin and Metalloprotease 17 (ADAM17) (domain or fragment, UniProt P78536 581-642, looked up)
chain: B2 chain
modifications: disulfide 20-55, 50-61; also: labelled on amines with RED-NHS dye
notes: membrane-proximal domain of ADAM17, closed disulfide isomer; it is the disulfide isomer of m9 and probably carries the same tag; also called closed MPD; closed isoform

Residue numbers refer to the chain shown, from its start. Bridge positions count the residues as written; N and C are the ends.

Series [1] deals with the molecule itself. The series is described as follows: SEC-MALS; Superdex 200 10/300 GL, 0.5 ml/minute, PBS pH 7.4; 100–500 µg protein per analysis. (In gel filtration, larger molecules generally elute earlier.)
Series [2] deals with T7, protein disulfide isomerase PDIA1 (human, UniProt P07237 18-508).
T7 construct: mature human PDIA1 (MW 57.6 kDa), cloned into pET28; Monomeric by SEC-MALS
The series can be described thus: MST; RED-NHS-labelled MPD constant at 20 nM, unlabelled PDI titrated (7.5 uM to 0.9537 nM, 1:2 series, 16 dilutions); PBS-P (PBS, 0.01% P20, pH 7.4), 25 °C; KD from the ligand-induced change of the initial fluorescence intensity. As to conditions: both partners purified.

Series [3] addresses T1, protein disulfide isomerase PDIA3. The series is described as above. To be noted: both partners purified.
In series [4] the target is B1. The description is as above. As to conditions: both partners purified.
The target of the next series is T2, PDIA6 C58S TRAP mutant. The description is as above. To be noted: both partners purified.
In the next series the target is T3, PDIA6 C193S TRAP mutant. Described as above. As to conditions: both partners purified.
Series [5] deals with T4, PDIA6 double TRAP mutant (2 TRAP) C58S …. Described as above. As to conditions: both partners purified.
For a further series, the target named is T5, PDIA6 C55S C58S mutant. The description is as above. To be noted: both partners purified.
The target of series [6] is T6, PDIA6 inverse TRAP mutant C55S C190S. Described as above. As to conditions: both partners purified.

T7 sequence (P07237 18-508): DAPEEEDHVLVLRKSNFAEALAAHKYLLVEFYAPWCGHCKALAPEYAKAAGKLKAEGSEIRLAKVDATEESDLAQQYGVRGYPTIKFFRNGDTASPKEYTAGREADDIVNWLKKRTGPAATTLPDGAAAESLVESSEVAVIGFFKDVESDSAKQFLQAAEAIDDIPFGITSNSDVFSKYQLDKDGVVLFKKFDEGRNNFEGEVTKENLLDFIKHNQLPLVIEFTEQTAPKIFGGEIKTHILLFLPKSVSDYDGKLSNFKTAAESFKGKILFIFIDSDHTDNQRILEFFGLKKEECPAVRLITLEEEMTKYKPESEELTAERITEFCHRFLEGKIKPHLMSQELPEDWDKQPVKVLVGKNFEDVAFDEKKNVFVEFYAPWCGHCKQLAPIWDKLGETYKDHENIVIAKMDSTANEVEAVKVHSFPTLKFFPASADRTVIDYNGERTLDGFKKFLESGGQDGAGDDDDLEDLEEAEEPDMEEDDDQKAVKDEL

As for B1, the “stoichiometry N” value in series [1] amounted to 2.
For the molecule B2, the Kd in series [2] was 158 nM; in series [3], 90 nM; in series [4], 93 nM; with PDIA6 C58S TRAP mutant it was 141 nM; with PDIA6 C193S TRAP mutant, 142 nM; in [5] it was 192 nM. The Kd in the series with PDIA6 C55S C58S mutant was 138 nM; in series [6], 115 nM.
With B3, the Kd amounted to 211 nM in [2]; 55 nM in series [3]; 61 nM in [4]; 113 nM in the series with PDIA6 C58S TRAP mutant; 91 nM in the series with PDIA6 C193S TRAP mutant; 151 nM in [5]. For the same molecule, the Kd with PDIA6 C55S C58S mutant stood at 191 nM; in series [6], 116 nM.
